Experimental data reported in the DeepSol protein solubility set.

Assay: soluble on expression in E. coli; label from the status in PepcDB or PDB records

Sequence | soluble on expression in E. coli
MKRSLLACAMSCMMLTVSAHSDFDVRNVDSQFHVPEIGGGVGLIDQQKERQIGEKVFREIQKQMPVVHDPWLQEQYSQIFLRVLAQTSITQPVGLVIIKDPQINAFAVPGGLFALNTGLIANARNIDEVAGVMAHEVAHVTQRHYSRSQEAFKGQGLLALAGILVGAAVATTSNADVGSAVMLGTQAALMDRQLTYSRNQEREADRIGMQYMYAAGYNPQSMADFFETMQRSRVGSSFMPDFWMTHPLTTERMSEARLRANQLPKVETKLYDPNFQLLKWYTLAVSDPSSEKILENVVKQGNKEAQLALGAYYVGQGDFVKAQKQLDDIKSQFNENTLYCLIQTNIYLGQNELDQAYSSIVNIQRAMPESRALAYKLAEVMILQGKAGDTLQLIQPFVNRNPRDLEGWQLMQQASSIDRISPVQTVNTLRYRAEVQFWSGNEENAIKSLLHAQRLAKGNESLSARIDSRLKQMQSDYTMKI | not soluble
MSDSASNTENSIQIEIFPSRILSPETAQKLLVELSQVDGILRVMIQGNRLPEKVGYGPGTGEKVEHPLRKPIQIGGQVIELRVSVGRIRLEVLNAEVKENVRAVCEKMLPFSFEFREGHFLRRKPTVTDYAKLGPEADPRLLGMVDPKAKINQLVFILEHHHHHH | not soluble
MTITKLAWRDLVPDTDSYQEIFAQPHLIDENDPLFSDTQPRLQFALEQLLHTRASSSFMLAKAPEESEYLNLIANAARTLQSDAGQLVGGHYEVSGHSIRLRHAVSADDNFATLTQVVAADWVEAEQLFGCLRQFNGDITLQPGLVHQANGGILIISLRTLLAQPLLWMRLKNIVNRERFDWVAFDESRPLPVSVPSMPLKLKVILVGERESLADFQEMEPELSEQAIYSEFEDTLQIVDAESVTQWCRWVTFTARHNHLPAPGADAWPILIREAARYTGEQETLPLSPQWILRQCKEVASLCDGDTFSGEQLNLMLQQREWREGFLAERMQDEILQEQILIETEGERIGQINALSVIEFPGHPRAFGEPSRISCVVHIGDGEFTDIERKAELGGNIHAKGMMIMQAFLMSELQLEQQIPFSASLTFEQSYSEVDGDSASMAELCALISALADVPVNQSIAITGSVDQFGRAQPVGGLNEKIEGFFAICQQRELTGKQGVIIPTANVRHLSLHSELVKAVEEGKFTIWAVDDVTDALPLLLNLVWDGEGQTTLMQTIQERIAQASQQEGRHRFPWPLRWLNWFIPN | soluble
GIDPFTHMATFISVQLKKTSEVDLAKPLVKFIQQTYPSGGEEQAQYCRAAEELSKLRRAAVGRPLDKHEGALETLLRYYDQICSIEPKFPFSENQICLTFTWKDAFDKGSLFGGSVKLALASLGYEKSCVLFNCAALASQIAAEQNLDNDEGLKIAAKHYQFASGAFLHIKETVLSALSREPTVDISPDTVGTLSLIMLAQAQEVFFLKATRDKMKDAIIAKLANQAADYFGDAFKQCQYKDTLPKEVFPVLAAKHCIMQANAEYHQSILAKQQYYFGEEIARLQHAAELIKTVASRYDEYVNVKDFSDKINRALAAAKKDNDFIYHDRVPDLKDLDPIGKATLVKSTPVNVPISQKFTDLFEKMVPVSVQQSLAAYNQRKADLVNRSIAQMREATTLANGVLASLNLPAAIEDVSGDTVPQSILTKSRSVIEQGGIQTVDQLIKELPELLQRNREILDESLRLLDEEEATDNDLRAKFKERWQRTPSNELYKPLRAEGTNFRTVLDKAVQADGQVKECYQSHRDTIVLLCKPEPELNAAIPSANPAKTMQGSEVVNVLKSLLSNLDEVKKEREGLENDLKSVNFDMTSKFLTALAQDGVINEEALSVTELDRVYGGLTTKVQESLKKQEGLLKNIQVSHQEFSKMKQSNNEANLREEVLKNLATAYDNFVELVANLKEGTKFYNELTEILVRFQNKCSDIVFAR | soluble
SYEQLKGEWNRKSPNLSKCGEELGRLKLVLLELNFLPTTGTKLTKQQLILARDILEIGAQWSILRKDIPSFERYMAQLKCYYFDYKEQLPESAYMHQLLGLNLLFLLSQNRVAEFHTELERLPAKDIQTNVYIKHPVSLEQYLMEGSYNKVFLAKGNIPAESYTFFIDILLDTIRDEIAGCIEKAYEKILFTEATRILFFNTPKKMTDYAKKRGWVLGPNNYYSFASQQQKPEDTTIPSTELAKQVIEYARQLEMIV | soluble
MGSDKIHHHHHHMEIGIIGTGNIGGTLARKLIAAGHQVRVANSKGIHGVQSFADEIGATAVDVYGAVKGADAIILSIPLPALASLPNGFFDDLPETVPLIDTSNYYPGLRDPLIPEIDDGMTESVWVSQQLSHPVIKAFNNILAWSLAELGTPKGSASRLAIAVAGDNATLKQIVMNLVDDTGFDAIDAGSLEESWRQQPSTPAYCCDYDAETMKKGLTAAVRGEAASKRDRLPELFGKLGANPTHEDIVAMNRSLNP | not soluble
